Measured values published in publication PMC6669014.

Target: NRTN-GFRα2 complex (wild type) (human) (UniProt Q99748)
Experiment: SPR

UniProt Q99748, sequence (Q99748 97-197, chain 1 of 2): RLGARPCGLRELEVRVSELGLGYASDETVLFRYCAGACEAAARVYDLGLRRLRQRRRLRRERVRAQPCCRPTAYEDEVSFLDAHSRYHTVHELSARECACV
UniProt Q99748, sequence (O00451 22-441, chain 2 of 2, further chain): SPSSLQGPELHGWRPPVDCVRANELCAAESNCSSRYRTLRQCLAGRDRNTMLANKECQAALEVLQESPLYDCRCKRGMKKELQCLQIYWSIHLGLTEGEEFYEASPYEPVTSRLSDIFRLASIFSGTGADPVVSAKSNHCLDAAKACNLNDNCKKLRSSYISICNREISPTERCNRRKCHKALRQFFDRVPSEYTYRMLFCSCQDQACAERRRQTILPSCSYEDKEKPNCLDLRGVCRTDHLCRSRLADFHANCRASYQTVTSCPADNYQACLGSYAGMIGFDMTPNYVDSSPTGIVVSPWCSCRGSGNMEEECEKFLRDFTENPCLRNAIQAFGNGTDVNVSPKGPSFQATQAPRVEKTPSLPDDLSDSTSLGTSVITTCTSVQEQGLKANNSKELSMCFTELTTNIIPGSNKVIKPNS

increase in response over NRTN alone: 150 RU
Substance: human RET extracellular domain (RET^ECD, 29 to 635) (from UniProt P07949 29-635) (receptor)
